Data on 3 substances can be found in paper doi:10.1101/2025.05.22.655451.

The target in this test is HA N-terminally tagged C99 (APP C-terminal fragment C99) (UniProt P05067). Briefly: proximity ligation.
Sequence of HA N-terminally tagged C99 (APP C-terminal fragment C99) (P05067 672-770): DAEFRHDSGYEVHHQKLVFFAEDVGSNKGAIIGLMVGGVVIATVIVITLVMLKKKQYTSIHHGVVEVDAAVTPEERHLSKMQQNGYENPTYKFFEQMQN

“MT5-MMP TM/IC (transmembrane and intracellular domains, extracellular domains depleted) (from UniProt Q9Y5R2 53-645) (domain or fragment)” yielded a PLA+ spots per cell (PLA+ spots per cell) of 25.
In the case of “Chimera of the TM of MT1-MMP and the IC of MT5-MMP” it was 25; in that of “MT5-MMP TM/IC with alanine substitutions of the C-terminal PDZ-binding EWV motif (domain or fragment)”, 21.
